Blank lines part the entries; values can stand above or below the molecule they belong to.
Assays:
[1] = molecular target: canine neonatal Fc receptor, C-terminus biotinylated, attached to Streptavidin (cFcRn-SmBiT) (canine); assay: other; competition with IgG-LgBiT tracer
[2] = molecular target: recombinant canine Interleukin 31 produced in HEK cells (canine); assay: dynamic light scattering; hydrodynamic radius of cIL-31 at pH 7.5; monomer to dimer
[3] = molecular target: recombinant canine Interleukin 31 produced in Nicotiana benthamiana (canine); assay: as above
[4] = molecular target: recombinant canine Interleukin 31 produced in Nicotiana benthamiana (canine); assay: SEC; elution volume on a calibrated Superdex 200 column; monomer to dimer
[5] = molecular target: T1, canine neonatal Fc receptor, C-terminus biotinylated, attached to Streptavidin (cFcRn-SmBiT) (canine, biotin at the C-terminus); assay: competition with IgG-LgBiT tracer
T1 chain 1: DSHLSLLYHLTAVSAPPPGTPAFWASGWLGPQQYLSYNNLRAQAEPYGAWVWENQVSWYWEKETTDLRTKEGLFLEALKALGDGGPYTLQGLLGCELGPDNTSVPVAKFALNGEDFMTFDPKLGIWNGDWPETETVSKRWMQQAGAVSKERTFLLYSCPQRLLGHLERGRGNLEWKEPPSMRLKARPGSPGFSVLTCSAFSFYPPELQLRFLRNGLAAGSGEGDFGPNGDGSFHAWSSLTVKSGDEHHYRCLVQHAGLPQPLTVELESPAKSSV
T1 chain 2: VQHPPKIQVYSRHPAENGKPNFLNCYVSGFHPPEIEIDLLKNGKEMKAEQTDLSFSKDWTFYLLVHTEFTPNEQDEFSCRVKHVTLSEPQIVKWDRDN

[6] = molecular target: T2, recombinant canine Interleukin 31 produced in HEK cells (canine); assay: BLI
T2 chain: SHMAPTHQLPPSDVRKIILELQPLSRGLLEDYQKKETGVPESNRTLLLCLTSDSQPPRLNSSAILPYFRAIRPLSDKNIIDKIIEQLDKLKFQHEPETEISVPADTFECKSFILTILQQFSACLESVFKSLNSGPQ

[7] = molecular target: T3, recombinant canine Interleukin 31 produced in HEK cells (canine); assay: BLI; Lokivetmab or M1 (5 nM) immobilised on ProA biosensors to 1 nm; rcIL-31 (HEK) 300 to 80 nM in solution; 25 °C, PBS pH 7.4, 0.1% BSA, 0.02% Tween; association 360 s, dissociation 600 s; global fit, KD from kd/ka; conditions: both partners purified
T3 construct: canine Interleukin 31 (IL-31); also called rcIL-31 (HEK); cIL-31 (HEK); source: produced in HEK cells
T3 chain: T2 chain

IC50 [1]: 68.7 µg/mL
Molecule: Lokivetmab

stoichiometry N [2]: 2
Molecule: recombinant canine Interleukin 31 produced in HEK cells (ligand)

stoichiometry N [3]: 2
stoichiometry N [4]: 2
Molecule: recombinant canine Interleukin 31 produced in Nicotiana benthamiana (ligand)

IC50 [5]: 17.9 µg/mL
B1: plant-made anti-cIL-31 monoclonal antibody M1 produced in wild-type N. benthamiana (antibody)
chain 1: EVQLVESGGDLVKPGGSLRLSCVASGFTFSNYGMSWVRQAPGKGLQWVATISYGGSYTYYPDNIKGRFTISRDNAKNTLYLQMNSLRAEDTAMYYCVRGYGYDTMDYWGQGTLVTVSS
chain 2: EIVMTQSPASLSLSQEEKVTITCKASQSVSFAGTGLMHWYQQKPGQAPKLLIYRASNLEAGVPSRFSGSGSGTDFSFTISSLEPEDVAVYYCQQSREYPWTFGQGTKLEIK

koff [6]: 0.00345 s⁻¹
IC50 [5]: 21.6 µg/mL
Kd [7]: 28.5 nM
B2: plant-made anti-cIL-31 monoclonal antibody M1 produced in FucT/XylT mutant (ΔXF) N. benthamiana (antibody, V domains shown)
VH: B1 chain 1
VL: B1 chain 2
notes: CAN-34D03-VH-568-1); CAN 34D03-VL998-1); LC constant domain kappa (XP_035562095.1); Full IgG; N-glycans lack core α(1,3)-fucose and β(1,2)-xylose; also called M1 ΔXF; plant-made Lokivetmab biosimilar; source: ΔXF N. benthamiana, transient expression, purified (Protein A: Hi Screen Fibro PrismA)

koff [6]: 0.00205 s⁻¹
Kd [7]: 27.4 nM
B3: Lokivetmab (antibody, V domains shown)
VH: B1 chain 1
VL: B1 chain 2
notes: Caninized IgG; major N-glycoform GnGnF (79%); also called caninized monoclonal antibody targeting IL-31; commercial homolog of M1; source: produced in CHO cells; commercial product

Reference: publication PMC11209382, “Exploring the Potentiality of a Plant Platform for Monoclonal Antibody Production in Veterinary Medicine” (Vaccines, 2024)
